# Measured values from the supplement of paper PMC10567573.
# B1: TOR1AIP2 (parent)
# chain: YTSSQKVSPIQIDGAGRTWQDSDT
# B2: TRIM63 (parent)
# chain: ANPYWTSRGSSVSMSGGRFRCPTC
# Variants of: B1
# Assay: protein stability index of a GFP-peptide fusion (GPS, HEK-293T) (PSI 1-6); higher = more stable
# Conditions: c terminus: a fixed tail appended
# 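Further: lentivirally expressed fusions sorted by FACS into six bins by GFP to DsRed ratio, PSI derived from sequencing read proportions per bin multiplied by bin number.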
row,Variant,protein stability index
1,Q11A,2.96
2,Q11N,3.4
3,Q11P,3.93
4,Q11W,5.21
5,Q11E,3.81
6,Q11I,2.72
7,Q11K,3.95
8,Q11D,3.96
9,Q11V,2.84
10,Q11G,2.06
11,Q11M,3.16
12,G14A,3.37
13,G14Q,3.57
14,G14M,2.77
15,G14Y,2.78
16,G14T,3.38
17,G14W,3.16
18,G14E,3.94
19,G14N,3.5
20,G14V,2.78
21,V7A,3.41
22,V7M,2.51
23,V7P,3.6
24,V7N,3.97

row,Variant,protein stability index
1,V7Y,1.54
2,V7G,3.96
3,V7E,3.46
4,V7Q,4.19
5,V7S,3.52
6,V7F,3.64
7,V7T,3.78
8,K6Y,1.31
9,K6D,4.86
10,K6F,3.73
11,K6M,3.6
12,K6V,3.52
13,K6G,3.42
14,K6H,3.51
15,K6T,4.03
16,K6Q,3.76
17,K6L,2.9
18,K6S,3.51
19,K6W,3.33
20,K6I,3.67
21,K6C,3.04
22,I10W,2.4
23,I10H,3.5
24,I10P,4.18

row,Variant,protein stability index
1,I10R,3.76
2,I10F,1.85
3,I10L,3.52
4,I10N,4.2
5,I10Y,1.57
6,I10E,4.58
7,I10G,3.85
8,I10V,4.1
9,I10D,4.32
10,I10C,3.25
11,I12V,2.97
12,I12A,3.68
13,I12F,3.24
14,I12R,3.63
15,I12S,3.08
16,I12T,3.65
17,I12M,3.5
18,I12P,3.99
19,I12D,4.12
20,I12G,4.59
21,Y1D,4.85
22,Y1Q,4.64
23,Y1C,4.22
24,Y1L,4.06

row,Variant,protein stability index
1,Y1P,4.4
2,Y1H,5.19
3,Y1V,4.26
4,Y1A,3.7
5,Y1E,5.31
6,Y1M,5.05
7,Y1F,3.02
8,Y1T,4.68
9,Y1N,4.87
10,G16E,3.32
11,G16T,2.7
12,G16Q,2.97
13,G16D,4.01
14,G16V,3
15,G16M,3.65
16,G16L,3.07
17,G16H,3.41
18,G16S,2.9
19,G16Y,2.89
20,G16R,3.19
21,G16P,3.24
22,G16C,2.99
23,G16I,2.54
24,T18W,2.3

row,Variant,protein stability index
1,T18K,3.33
2,T18Y,2.74
3,T18R,3.43
4,T18C,2.9
5,T18I,2.63
6,T18P,3.38
7,T18A,3.01
8,T18S,2.87
9,T18L,3
10,D23P,2.64
11,D23T,2.17
12,D23N,3.41
13,D23H,2.16
14,D23A,3.06
15,D23Y,2.81
16,D23C,2.83
17,D23Q,3.41
18,D23F,2.04
19,D23I,1.44
20,D23M,2.06
21,D23K,2.55

# Variants of: B2
# Assay: as above
# Conditions: c terminus: a fixed tail appended
row,Variant,protein stability index
1,C24Y,3.28
2,C24I,2.05
3,C21L,2.32
4,C21T,2.23
5,C21P,2.72
6,A1V,2.21
7,Y4N,2.34
8,T23M,2.44
9,T23A,1.87
10,T23S,2.52
11,R20M,2.12
12,R20D,2.79
13,T6I,1.84
14,T6G,2.44
15,G9K,1.98
16,M14K,1.85
17,M14N,2.03
18,S7F,2.07
19,G16V,1.3
20,G16F,1.32
21,G16R,1.05
22,G16E,1.58
23,G16M,1.83
24,G16Q,1.7
25,W5L,1.73

row,Variant,protein stability index
1,P3A,2.08
2,P3G,1.18
3,S15A,2.94
4,R18C,1.4
5,R18M,2.49
6,S13D,2.06
7,S13E,2.98
8,P22C,1.89
9,P22F,2.97
10,P22M,1.97
11,P22S,2.19
12,P22V,2.56
13,S10E,1.76
14,S10Q,2.83
15,V12Y,1.69
16,V12S,2.46
17,V12P,2.78
18,V12A,1.49
19,V12I,2.46
20,N2A,2.08
21,G17V,2.77
22,G17P,1.76
23,G17L,1.81
24,F19H,2.12
25,F19I,2.34
